The record followed here is patent US20190177370A1 (TOKYO UNIVERSITY OF PHARMACY AND LIFE SCIENCES, published 2019).

Square brackets hold non-standard residues; d marks the D form. Primed or numbered codes have the meaning given here. * marks the point of attachment. m‑dPEG(4)″ = m-dPEG(4) acid, coupled to Acp (R^111 group of Formula (4)), COCCOCCOCCOCCC(=O)*; m‑dPEG(4) = m-dPEG(4) acid, coupled to Acp, with Acp forms R^111 of Formula (4); 2Nal = N[C@@H](Cc1ccc2ccccc2c1)C(=O)O; R^118 = not defined here; Ahx = NCCCCCC(=O)O

The target in this assay is T1, myostatin (UniProt O14793 267-375, limits assumed).
T1 sequence (looked up): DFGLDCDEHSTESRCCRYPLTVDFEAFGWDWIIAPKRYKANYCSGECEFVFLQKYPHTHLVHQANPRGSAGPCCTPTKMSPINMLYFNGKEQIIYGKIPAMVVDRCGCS
Put plainly: cell-based or functional assay.

As for {m‑dPEG(4)-Ahx}-FYIEWIKIQIISKLRL-NH2 [PDM-32], the “myostatin inhibitory activity at 1 µM (luciferase reporter assay)” value is at least 40 % inhibition.

B1: 3d (peptide)
peptide: {R^118}-RQNTRYSRIEWIKIQIISKLRL-NH2
modifications: reading uncertain; also: N-terminal R118 group (Formula 11) structure not given here, printed as R118-RQNTRYSRIEWIKIQIISKLRL-NH2
Take B1: the “IC50 of the myostatin inhibitory activity (luciferase reporter assay, 0.016 to 2 µM)” value amounted to 273 nM.

B2: PDM-31 (peptide)
peptide: {m‑dPEG(4)″-Ahx}-[2Nal]YIEWIKIQIISKLRL-NH2
SMILES: CC[C@H](C)[C@H](NC(=O)[C@H](Cc1ccc(O)cc1)NC(=O)[C@H](Cc1ccc2ccccc2c1)NC(=O)CCCCCNC(=O)CCOCCOCCOCCOC)C(=O)N[C@@H](CCC(=O)O)C(=O)N[C@@H](Cc1c[nH]c2ccccc12)C(=O)N[C@H](C(=O)N[C@@H](CCCCN)C(=O)N[C@H](C(=O)N[C@@H](CCC(N)=O)C(=O)N[C@H](C(=O)N[C@H](C(=O)N[C@@H](CO)C(=O)N[C@@H](CCCCN)C(=O)N[C@@H](CC(C)C)C(=O)N[C@@H](CCCNC(=N)N)C(=O)N[C@@H](CC(C)C)C(N)=O)[C@@H](C)CC)[C@@H](C)CC)[C@@H](C)CC)[C@@H](C)CC
Take B2: the “myostatin inhibitory activity at 1 µM (luciferase reporter assay)” value is at least 40 % inhibition.
